# B1: recombinant MUC5B COOH-terminus (CT5B; D4-B-C-CK) (domain or fragment, human, UniProt Q9HC84 4955-5762, looked up)
# chain: GEVIYNKTDRAGCHFYAVCNQHCDIDRFQGACPTSPPPVSSAPLSSPSPAPGCDNAIPLRQVNETWTLENCTVARCVGDNRVVLLDPKPVANVTCVNKHLPIKVSDPSQPCDFHYECECICSMWGGSHYSTFDGTSYTFRGNCTYVLMREIHARFGNLSLYLDNHYCTASATAAAARCPRALSIHYKSMDIVLTVTMVHGKEEGLILFDQIPVSSGFSKNGVLVSVLGTTTMRVDIPALGVSVTFNGQVFQARLPYSLFHNNTEGQCGTCTNNQRDDCLQRDGTTAASCKDMAKTWLVPDSRKDGCWAPTGTPPTASPAAPVSSTPTPTPCPPQPLCDLMLSQVFAECHNLVPPGPFFNACISDHCRGRLEVPCQSLEAYAELCRARGVCSDWRGATGGLCDLTCPPTKVYKPCGPIQPATCNSRNQSPQLEGMAEGCFCPEDQILFNAHMGICVQACPCVGPDGFPKFPGERWVSNCQSCVCDEGSVSVQCKPLPCDAQGQPPPCNRPGFVTVTRPRAENPCCPETVCVCNTTTCPQSLPVCPPGQESICTQEEGDCCPTFRCRPQLCSYNGTFYGVGATFPGALPCHMCTCLSGDTQDPTVQCQEDACNNTTCPQGFEYKRVAGQCCGECVQTACLTPDGQPVQLNETWVNSHVDNCTVYLCEAEGGVHLLTPQPASCPDVSSCRGSLRKTGCCYSCEEDSCQVRINTTILWHQGCETEVNITFCEGSCPGASKYSAEAQAMQHQCTCCQERRVHEETVPLHCPNGSAILHTYTHVDECGCTPFCVPAPMAPPHTRGFPAQEATAV
# modifications: N-glycans (removed by PNGase F; positions not stated)
# notes: Present as a mixture of monomers and disulfide-stabilised dimers; the proportions varied between preparations; also called MUC5B COOH-terminal construct; COOH-terminal region of MUC5B
# Biological target: the molecule itself
# Experiment: SEC-MALS; SEC-MALLS of purified CT5B, performed as described in ref. 18; light scattering and refractive index
protein,measurement,value
B1,stoichiometry N,2

# Source: PMC4896102, “Biosynthesis of the polymeric gel-forming mucin MUC5B” (American Journal of Physiology - Lung Cellular and …, 2016)
